# B1: MKP-1T4: MAPK phosphatase that de-activates this kinase (protein, UniProt P28562 1-367, looked up)
# Dual specificity protein …: MVMEVGTLDAGGLRALLGERAAQCLLLDCRSFFAFNAGHIAGSVNVRFSTIVRRRAKGAMGLEHIVPNAELRGRLLAGAYHAVVLLDERSAALDGAKRDGTLALAAGALCREARAAQVFFLKGGYEAFSASCPELCSKQSTPMGLSLPLSTSVPDSAESGCSSCSTPLYDQGGPVEILPFLYLGSAYHASRKDMLDALGITALINVSANCPNHFEGHYQYKSIPVEDNHKADISSWFNEAIDFIDSIKNAGGRVFVHCQAGISRSATICLAYLMRTNRVKLDEAFEFVKQRRSIISPNFSFMGQLLQFESQVLAPHCSAEAGSPAMAVLDRGTSTTTVFNFPVSIPVHSTNSALSYLQSPITTSPSC
# B2: GST-pi: glutathione-S-transferase, pi isozyme, selective inhibitor of JNK-induced phosphorylation of jun (protein, UniProt P09211 2-210, looked up)
# Glutathione S-transferase P: PPYTVVYFPVRGRCAALRMLLADQGQSWKEEVVTVETWQEGSLKASCLYGQLPKFQDGDLTLYQSNTILRHLGRTLGLYGKDQQEAALVDMVNDGVEDLRCKYISLIYTNYEAGKDDYVKALPGQLKPFETLLSQNQGGKTFIVGDQISFADYNLLDLLLIHEVLAPGCLDAFPLLSAYVGRLSARPKLKAFLASPEYVNLPINGNGKQ
# What was measured:
# [1] = system: oncogenic (Val 12-containing) ras-p21-induced oocyte maturation; test: Oncogenic ras-p21-induced oocyte maturation (GVBD); assay type: cell-based, Xenopus laevis; settings: injected/co-injected with oncogenic ras-p21 into oocytes
# Source text: (§1) The Applicants have synthesized both of the inventive peptides, referred to as PNC-7 and PNC-2, and assayed them for their abilities to block oncogenic ras-p21 induction of maturation of Xenopus laevis oocytes. Injection of oncogenic, but not wild-type ras-p21, into these oocytes induce oocyte maturation, i.e., completion of the second meiotic division, as measured by germinal vesicle membrane breakdown (GVBD). Insulin also induces oocyte maturation in a manner that requires activation of endogenous wild-type ras-p21.
# [2] = system: insulin-induced oocyte maturation; test: Insulin-induced oocyte maturation (activated wild-type ras-p21); assay type: cell-based, Xenopus laevis; settings: oocytes induced to mature with insulin
# Source text: as §1
Molecule,inhibition of oncogenic ras-p21-induced oocyte maturation [1],inhibition of insulin-induced oocyte maturation [2]
B1,completely blocks,considerably less effect
B2,complete inhibition of oocyte maturation,no effect

# From US20100144636A1, “PEPTIDES DERIVED FROM RAS-P21 AND USES THEREFOR” (THE RESEARCH FOUNDATION OF STATE UNIVERSITY OF NEW YORK, priority 2008, published 2010)
